Literature values as cited in US20200069786A1, “COMPOSITION AND PROCESS FOR PREPARING VACCINE” (TREOS BIO ZRT., priority 2018, published 2020).
Like-named read-outs stand apart in the source and are kept apart here.

System: TSA
[1] = TSA expression rate in BLADDER cancer
[2] = TSA expression rate in Esophageal
[3] = TSA expression rate in GASTRIC cancer
[4] = TSA expression rate in LEUKEMIAS
[5] = TSA expression rate in LUNG cancer
[6] = TSA expression rate in MELANOMA
[7] = TSA expression rate in HEAD and NECK
[8] = TSA expression rate in PROSTATE cancer
[9] = TSA expression rate in Cervical cancer

Molecule | TSA Expression Rate (ER) (BREAST) [%] | TSA Expression Rate (ER) (HCC) [%] | TSA Expression Rate (ER) (OVARIAN) [%] | TSA Expression Rate (ER) (PANCREATIC) [%] | Expression Rate (ER) % [1] [%] | Expression Rate (ER) % (TSA expression rate in CRC) [%] | Expression Rate (ER) % [2] [%] | Expression Rate (ER) % [3] [%] | Expression Rate (ER) % [4] [%] | Expression Rate (ER) % [5] [%] | Expression Rate (ER) % [6] [%] | TSA Expression Rate (ER) (LUNG) [%] | TSA Expression Rate (ER) (BRAIN) [%] | TSA Expression Rate (ER) (THYROID) [%] | Expression Rate (ER) % [7] [%] | Expression Rate (ER) % (TSA expression rate in Kidney) [%] | Expression Rate (ER) % [8] [%] | Expression Rate (ER) % [9] [%] | Expression Rate (ER) % (TSA expression rate in PEDIATRIC) [%] | Expression Rate (ER) % (TSA expression rate in LYMPHOMAS) [%]
SPAN-Xc (protein, UniProt Q9NY87 1-97, looked up) Sperm protein associated with …: MDKQSSAGGVKRSVPCDSNEANEMMPETSSGYSDPQPAPKKLKTSESSTILVVRYRRNVKRTSPEELVNDHARENRINPLQMEEEEFMEIMVEIPAK | 26 | 60 | 0 | 0 | 9 | 24 | 0 | 0 | 4 | 17 | 70 | – | – | – | – | – | – | – | – | –
AKAP-3 (protein, UniProt O75969 1-853, looked up) A-kinase anchor protein 3: MSEKVDWLQSQNGVCKVDVYSPGDNQAQDWKMDTSTDPVRVLSWLRRDLEKSTAEFQDVRFKPGESFGGETSNSGDPHKGFSVDYYNTTTKGTPERLHFEMTHKEIPCQGPRAQLGNGSSVDEVSFYANRLTNLVIAMARKEINEKIDGSENKCVYQSLYMGNEPTPTKSLSKIASELVNETVSACSRNAAPDKAPGSGDRVSGSSQSPPNLKYKSTLKIKESTKERQGPDDKPPSKKSFFYKEVFESRNGDYAREGGRFFPRERKRFRGQERPDDFTASVSEGIMTYANSVVSDMMVSIMKTLKIQVKDTTIATILLKKVLLKHAKEVVSDLIDSFLRNLHSVTGTLMTDTQFVSAVKRTVFSHGSQKATDIMDAMLRKLYNVMFAKKVPEHVRKAQDKAESYSLISMKGMGDPKNRNVNFAMKSETKLREKMYSEPKSEEETCAKTLGEHIIKEGLTLWHKTQQKECKSLGFQHAAFEAPNTQRKPASDISFEYPEDIGNLSLPPYPPEKPENFMYDSDSWAEDLIVSALLLIQYHLAQGGRRDARSFVEAAGTTNFPANEPPVAPDESCLKSAPIVGDQEQAEKKDLRSVFFNFIRNLLSETIFKRDQSPEPKVPEQPVKEDRKLCERPLASSPPRLYEDDETPGALSGLTKMAVSQIDGHMSGQMVEHLMNSVMKLCVIIAKSCDASLAELGDDKSGDASRLTSAFPDSLYECLPAKGTGSAEAVLQNAYQAIHNEMRGTSGQPPEGCAAPTVIVSNHNLTDTVQNKQLQAVLQWVAASELNVPILYFAGDDEGIQEKLLQLSAAAVDKGCSVGEVLQSVLRYEKERQLNEAVGNVTPLQLLDWLMVNL | 40 | 50 | 48 | – | – | 83 | – | 89 | – | – | – | 46 | – | – | – | – | – | – | – | –
FTHL17 (protein, UniProt Q9BXU8 1-183, looked up) Ferritin heavy …: MATAQPSQVRQKYDTNCDAAINSHITLELYTSYLYLSMAFYFNRDDVALENFFRYFLRLSDDKMEHAQKLMRLQNLRGGHICLHDIRKPECQGWESGLVAMESAFHLEKNVNQSLLDLYQLAVEKGDPQLCHFLESHYLHEQVKTIKELGGYVSNLRKICSPEAGLAEYLFDKLTLGGRVKET | 14 | – | – | – | 22 | 0 | 0 | – | – | – | 0 | 25 | 82 | 0 | 10 | 0 | 0 | – | – | –
MAGE-A9 (protein, UniProt P43362 1-315, looked up) Melanoma-associated antigen 9: MSLEQRSPHCKPDEDLEAQGEDLGLMGAQEPTGEEEETTSSSDSKEEEVSAAGSSSPPQSPQGGASSSISVYYTLWSQFDEGSSSQEEEEPSSSVDPAQLEFMFQEALKLKVAELVHFLLHKYRVKEPVTKAEMLESVIKNYKRYFPVIFGKASEFMQVIFGTDVKEVDPAGHSYILVTALGLSCDSMLGDGHSMPKAALLIIVLGVILTKDNCAPEEVIWEALSVMGVYVGKEHMFYGEPRKLLTQDWVQENYLEYRQVPGSDPAHYEFLWGSKAHAETSYEKVINYLVMLNAREPICYPSLYEEVLGEEQEGV | 44 | 5 | 37 | – | 61 | – | 55 | – | 9 | – | 12 | – | – | – | 44 | 55 | – | – | – | –
MAGE-A4 (protein, UniProt P43358 1-317, looked up) Melanoma-associated antigen 4: MSSEQKSQHCKPEEGVEAQEEALGLVGAQAPTTEEQEAAVSSSSPLVPGTLEEVPAAESAGPPQSPQGASALPTTISFTCWRQPNEGSSSQEEEGPSTSPDAESLFREALSNKVDELAHFLLRKYRAKELVTKAEMLERVIKNYKRCFPVIFGKASESLKMIFGIDVKEVDPASNTYTLVTCLGLSYDGLLGNNQIFPKTGLLIIVLGTIAMEGDSASEEEIWEELGVMGVYDGREHTVYGEPRKLLTQDWVQENYLEYRQVPGSNPARYEFLWGPRALAETSYVKVLEHVVRVNARVRIAYPSLREAALLEEEEGV | 9 | 7 | 37 | 2 | 27 | 18 | 76 | 24 | 36 | – | 30 | 27 | 11 | 0 | 42 | 17 | 0 | 23 | 41 | –
HOM-TES-85 (protein, UniProt Q9P127 1-313, looked up) Leucine zipper protein 4: MASFRKLTLSEKVPPNHPSRKKVNFLDMSLDDIIIYKELEGTNAEEEKNKRQNHSKKESPSRQQSKAHRHRHRRGYSRCRSNSEEGNHDKKPSQKPSGFKSGQHPLNGQPLIEQEKCSDNYEAQAEKNQGQSEGNQHQSEGNPDKSEESQGQPEENHHSERSRNHLERSLSQSDRSQGQLKRHHPQYERSHGQYKRSHGQSERSHGHSERSHGHSERSHGHSERSHGHSKRSRSQGDLVDTQSDLIATQRDLIATQKDLIATQRDLIATQRDLIVTQRDLVATERDLINQSGRSHGQSERHQRYSTGKNTITT | 47 | 19 | 32 | – | 0 | – | – | – | – | 11 | – | – | 10 | – | 4 | – | – | – | – | 14
AKAP-4 (protein, UniProt Q5JQC9 189-854, looked up) A-kinase anchor protein 4: QSPSAPPAKPPSTQRAVISPDGECSIDDLSFYVNRLSSLVIQMAHKEIKEKLEGKSKCLHHSICPSPGNKERISPRTPASKIASEMAYEAVELTAAEMRGTGEESREGGQKSFLYSELSNKSKSGDKQMSQRESKEFADSISKGLMVYANQVASDMMVSLMKTLKVHSSGKPIPASVVLKRVLLRHTKEIVSDLIDSCMKNLHNITGVLMTDSDFVSAVKRNLFNQWKQNATDIMEAMLKRLVSALIGEEKETKSQSLSYASLKAGSHDPKCRNQSLEFSTMKAEMKERDKGKMKSDPCKSLTSAEKVGEHILKEGLTIWNQKQGNSCKVATKACSNKDEKGEKINASTDSLAKDLIVSALKLIQYHLTQQTKGKDTCEEDCPGSTMGYMAQSTQYEKCGGGQSAKALSVKQLESHRAPGPSTCQKENQHLDSQKMDMSNIVLMLIQKLLNENPFKCEDPCEGENKCSEPRASKAASMSNRSDKAEEQCQEHQELDCTSGMKQANGQFIDKLVESVMKLCLIMAKYSNDGAALAELEEQAASANKPNFRGTRCIHSGAMPQNYQDSLGHEVIVNNQCSTNSLQKQLQAVLQWIAASQFNVPMLYFMGDKDGQLEKLPQVSAKAAEKGYSVGGLLQEVMKFAKERQPDEAVGKVARKQLLDWLLANL | 85 | – | 89 | – | – | 74 | – | – | – | – | – | 25 | – | – | – | – | 65 | 86 | – | –
SPAG1 (protein, UniProt Q07617 1-926, looked up) Sperm-associated antigen 1: MTTKDYPSLWGFGTTKTFKIPIEHLDFKYIEKCSDVKHLEKILCVLRSGEEGYYPELTEFCEKHLQALAPESRALRKDKPAATAASFTAEEWEKIDGDIKSWVSEIKKEEDKMHFHETETFPAMKDNLPPVRGSNSCLHVGKEKYSKRPTKKKTPRDYAEWDKFDVEKECLKIDEDYKEKTVIDKSHLSKIETRIDTAGLTEKEKDFLATREKEKGNEAFNSGDYEEAVMYYTRSISALPTVVAYNNRAQAEIKLQNWNSAFQDCEKVLELEPGNVKALLRRATTYKHQNKLREATEDLSKVLDVEPDNDLAKKTLSEVERDLKNSEAASETQTKGKRMVIQEIENSEDEEGKSGRKHEDGGGDKKPAEPAGAARAAQPCVMGNIQKKLTGKAEGGKRPARGAPQRGQTPEAGADKRSPRRASAAAAAGGGATGHPGGGQGAENPAGLKSQGNELFRSGQFAEAAGKYSAAIALLEPAGSEIADDLSILYSNRAACYLKEGNCSGCIQDCNRALELHPFSMKPLLRRAMAYETLEQYGKAYVDYKTVLQIDCGLQLANDSVNRLSRILMELDGPNWREKLSPIPAVPASVPLQAWHPAKEMISKQAGDSSSHRQQGITDEKTFKALKEEGNQCVNDKNYKDALSKYSECLKINNKECAIYTNRALCYLKLCQFEEAKQDCDQALQLADGNVKAFYRRALAHKGLKNYQKSLIDLNKVILLDPSIIEAKMELEEVTRLLNLKDKTAPFNKEKERRKIEIQEVNEGKEEPGRPAGEVSMGCLASEKGGKSSRSPEDPEKLPIAKPNNAYEFGQIINALSTRKDKEACAHLLAITAPKDLPMFLSNKLEGDTFLLLIQSLKNNLIEKDPSLVYQHLLYLSKAERFKMMLTLISKGQKELIEQLFEDLSDTPNNHFTLEDIQALKRQYEL | 31 | 11 | 31 | 93 | – | 55 | – | – | – | – | – | 71 | – | – | 7 | 11 | 27 | – | – | –
DPPA2 (protein, UniProt Q7Z7J5 1-298, looked up) Developmental …: MSDANLDSSKKNFLEGEVDDEESVILTLVPVKDDANMEQMEPSVSSTSDVKLEKPKKYNPGHLLQTNEQFTAPQKARCKIPALPLPTILPPINKVCRDTLRDWCQQLGLSTNGKKIEVYLRLHRHAYPEQRQDMPEMSQETRLQRCSRKRKAVTKRARLQRSYEMNERAEETNTVEVITSAPGAMLASWARIAARAVQPKALNSCSIPVSVEAFLMQASGVRWCVVHGRLLSADTKGWVRLQFHAGQAWVPTTHRRMISLFLLPACIFPSPGIEDNMLCPDCAKRNKKMMKRLMTVEK | – | – | 31 | – | – | 44 | – | 100 | – | – | – | 30 | – | – | – | – | – | – | – | –
